One data set deals with human CD45+ OCIM1 cells. Kind of data set: Complement dependent cytotoxicity (51Cr release) assay. The data set is classed as cell-based. The following applies: 10 ug/ml antibody, 10% baby rabbit serum. How it is done:
1×10^6 human CD45+ OCIM1 cells in 100 uL of complete medium (RPMI 1640 plus 10% fetal calf serum) were radiolabelled with 100 μCi ^51Cr sodium chromate for 1 h at 37° C. followed by three washes with complete medium. Labelled cells were incubated at 5×10^4/mL in triplicate wells of a 96 well plate in presence of YTH24.5 alone, YTH54.12 alone or with both antibodies for 10 mins at room temperature before of addition of baby rabbit serum at a final concentration of 10%. A final concentration of 5% Triton X-100 was added to control wells of cells to determined maximum lysis. 50 uL of supernatant from each well was transferred into a white-walled plates containing 150 uL scintillation liquid in each well. Plates were read in a MicroBeta counter (Trilux) after overnight incubation. The percentage of specific lysis was calculated using the standard formula [(experimental−spontaneous release)/(maximum load-spontaneous release)×100] and expressed as the mean of triplicate samples.

In a further data set the test system is human CD34+ cells. Kind of data set: Ex vivo treatment of CD34+ cells with Mab or ADC prior to engraftment in NSG mice. As to conditions: CD34+ cells treated at 1 nM and 0.1 nM for 4 hours before transplantation; week 8. Here is the method: Adult female NSG mice were sublethally irradiated with 2.5 Gy on the day before transplantation. Cryopreserved purified CD34+ cells from mobilized peripheral blood from a normal donor were thawed and cultured in complete medium (RPMI 1640 plus 10% fetal calf serum) in presence of Mab, ADC or medium alone for 4 hours. Cells were washed in phosphate buffered saline (PBS) and 0.5×10^6 cells in PBS were injected intravenously into the tail vein of mice. Engraftment of transplanted human cells (hCD45+) in the bone marrow of mice was determined by flow cytometry at 8 weeks after transplantation.

A further data set relates to CD34+ PBSC (CD45+). Kind of data set: Clonogenic assay, CD34+ PBSC treated 2 h with Mab or ADC. As to conditions: MAbs in human IgG1-AAA or rat IgG2b format; Isotype control and Isotype control PBD rat IgG2b format only. The data set is classed as cell-based, human. How it is done:
Cryopreserved purified CD34+ cells from mobilized peripheral blood from three normal donors were thawed and cultured at […] complete medium (RPMI 1640 plus 10% fetal calf serum) in presence of Mab, ADC or medium alone for 2 hours in 96-well U-bottom plates. Cells were mixed and 40 uL was transferred to 2 ml of StemMACS HSC-CFU complete with Epo (Miltenyi Biotech) and mixed well. 0.5 ml (250 cells) was plated into triplicate into wells of a 24-well plate. Colonies were enumerated between 10-14 days. Data is mean of three donors±s.d.

Data set [1] deals with luciferase expressing human CD45+ Jurkat cells. Kind of data set: Jurkat leukaemia model in NSG mice (bioluminescence, survival). As to conditions: 1 mg/kg, day 16. The data set is classed as in vivo. Here is the method:
Adult NSG mice were sublethally irradiated with 2 Gy on the day before injection of cells. 5×10^6 fire fly luciferase expressing Jurkat cells in PBS were injected intravenously into the tail vein of mice. On the following day PBS, MAbs or ADC were injected intravenously into the tail vein at a dose of 1 mg/kg. Mice were regularly monitored for signs of morbidity and weight loss for the duration of the experiment. For imaging, mice were injected intraperitoneally with 3 mg D-luciferin in PBS. Mice were initially anesthetized with 4% isoflurane and then maintained at 2% isoflurane. Ten minutes after injection of D-luciferin, mice were imaged inside a IVIS Lumina III (PerkinElmer). A sub-saturating image was captured using the auto-exposure setting in the Living Image software.

In data set [2] the test system is human CD45+ cells. Kind of data set: Depletion of human CD45+ cells in humanised NSG mice. The data set is classed as in vivo. How it is done:
Adult female NSG mice were sublethally irradiated with 2.5 Gy on the day before transplantation (day −57). Cryopreserved purified CD34+ cells from mobilized peripheral blood from a normal donor were thawed and 0.5×10^6 cells in PBS were injected intravenously into the tail vein of mice (day −56). Human engraftment (human CD45+ cells) in the blood of mice was assessed at day −14 and day −1. Mice were assigned to treatment cohorts so that the median human CD45+ engraftment in the blood between the cohorts was as similar as possible. Mice were injected with 0.3 mg/kg or 1 mg/kg Mab or ADC intravenously via the tail vein. Blood samples were taken after 7 days and analysed by flow cytometry. The bone marrow, blood and spleen of mice were analysed at two weeks post-treatment.

The subject of another data set is target cells. Kind of data set: Live-imaging microscopy of antibody internalisation. The class given is cell-based. The following applies: live-imaging microscopy (data not shown). The source says:
In particular, the lysosomal pathway can be important in providing an environment for cleavage of the antibody-drug linkers, hereby releasing the drug in the target cells for highly specific cell killing.

A short description of data set [3]: Dosimetry in non-humanised NSG mice. As to conditions: 5 mg/kg i.v., non-humanised NSG mice, monitored 2 weeks. The class given is in vivo. How it is done:
For dosimetry in non-humanised NSG mice, adult NSG mice were injected intravenously via the tail vein with unconjugated Mab or ADC up to 5 mg/kg. Mice regularly monitored over a period of 2 weeks for any signs of morbidity. Mice were culled if rapid weight loss (>15%) occurred over a period of 2 days.

A further data set concerns 293T (CD45-). Kind of data set: Cell viability assay 5 days (PrestoBlue), 293T. The data set is classed as cell-based, human. The following applies: rat IgG2b ADC, n=3. Here is the method: (§1) OCIM1, Jurkat and Nalm6 cells were seeded at a final concentration of 1.275×10^4/mL and for 5 days in presence of rat IgG2b Mab or ADC or medium (in triplicate) in wells of flat bottom 96-well plates. 293T cells were seeded at 9.3×10^3 cells per 100 uL per well in flat bottom 96-well plates and allowed to adhere the plate for up to 24 hours. 293T cells were subsequently cultured with rat IgG2b Mabs or ADC or medium (in triplicate wells) as described above. PrestoBlue® Cell viability Reagent (Thermo Fisher Scientific) was added to each and incubated for up to 1.5 hours. Fluorescence intensity from each well was detected using a FLUOstar OPTIMA microplate reader (BMG Labtech). Data was plotted using Prism 8.0 and sigmoid dose-response non-linear regression was used to determine EC50 values. Data points are mean±s.d. for representative experiments.

In another data set the test system is Nalm6 (CD45-). Kind of data set: Cell viability assay 5 days (PrestoBlue), Nalm6. The class given is cell-based, human. The following applies: rat IgG2b ADC, n=3. How it is done: as §1
Data set [4] deals with fLuc+ OCIM1 cells. Kind of data set: AML model in NSG mice, treatment the day after cell injection. As to conditions: 1 mg/kg or 5 mg/kg i.v. the day after OCIM1 injection. The class given is in vivo. Here is the method:
(§2) NSG mice were transplanted with 7.5×10^6 luciferase expressing fLuc+ OCIM1 cells i.v. On the following day, unconjugated rat IgG2b antibodies or ADCs were injected i.v. via a tail vein at a dose of 1 mg/kg or 5 mg/kg. Mice were regularly monitored for signs of morbidity for the duration of the experiment. For imaging, mice were injected intraperitoneally with 200 μl of 15 mg/mL D-luciferin (Regis Technologies) in PBS. Mice were subsequently anesthetized with 4% isoflurane and maintained at 2% isoflurane. Ten minutes after injection of D-luciferin, mice were placed with anterior side up inside a IVIS Lumina III (PerkinElmer). A sub-saturating image was captured using the auto-exposure setting in the Living Image software (v4.5). Quantification and preparation of images was also carried out using the same software.

In data set [5] the test system is fLuc+ OCIM1 cells. Kind of data set: Established AML model in NSG mice, treatment 10 days post-injection. The data set is classed as in vivo. Here is the method: as §2, with “7.5×10^6” for “7.5×10^6 luciferase expressing”, “At 10 days post-injection of AML cells,” for “On the following day,”, “antibody” for “rat IgG2b antibodies”
Data set [6] concerns human CD45+ cells. Kind of data set: Allogeneic stem cell transplant model in humanized NSG mice, comparison of payloads. The data set is classed as in vivo. As to conditions: 5 mg/kg. Here is the method:
Adult NSG mice (Charles River Laboratories) were sublethally irradiated with 2.5 Gy in a ^137Cs irradiator. On the following day, mice were injected with 0.5×10^6 freshly thawed cryopreserved human CD34+ cells from a health donor were injected via the tail vein in 150 μL PBS using a 29 gauge MicroFine Plus insulin syringe (BD). Engraftment of human cells in the blood was assessed periodically from 6 weeks after transplantation. At 10 weeks post-transplant, humanized NSG mice were assigned into cohorts with similar median human CD45+ cell engraftment in the blood, as determined by flow cytometry. Mice were injected with PBS or 1 mg/kg YTH24.5-B1. Sixteen 16 days after treatment, mice were transplanted with 0.5×10^6 GFP+CD34+ cells from another healthy donor. Irradiated NSG […] were also transplanted with the GFP+CD34+ from the allogeneic healthy donor as a control for engraftment of the GFP+CD34+ cells. 8 weeks after transplantation of GFP+ cells, mice were culled and blood, spleen and bone marrow taken for analysis by flow cytometry.
Experimental schedule is as previously described in example 16 but with the following modifications. Humanized NSG mice at 10 weeks post-transplant were injected with PBS or 1 mg/kg YTH24.5-B1, YTH54.12-B1, Isotype-B1, YTH24.5-B4 and Isotype-3376. Isotype-B2 and YTH24.5-B2 was given at a dose of 5 mg/kg. Transplantation of 0.5×10^6 GFP+CD34+ from an allogeneic human donor and analysis at 8 weeks post-transplant of GFP+ cells was carried out as previously described.

The text below walks through data of patent US20220096654A1, “PYRROLOBENZODIAZEPINE-ANTIBODY CONJUGATES AND USES THEREOF” (ADC THERAPEUTICS SA, priority 2020, published 2022).

What is called EC50 is the concentration that produces a half-maximal response.

B1: YTH24.5 (antibody)
heavy: QVNLLQSGAALVKPGASVKLSCKASSYTFTDYYIHWVKQSHGKTLEWIGYINPKSGFTNYNEKFRRKATLTVDKSTNTAYMDISRLTSEDSATYYCTRRTGVIPMDAWGQGASVTVSSAQTTAPSVYPLAPGCGDTTSSTVTLGCLVKGYFPEPVTVTWNSGALSSDVHTFPAVLQSGLYTLTSSVTSSTWPSQTVTCNVAHPASSTKVDKKVERRNGGIGHKCPTCPTCHKCPVPELLGGPSVFIFPPKPKDILLISQNAKVTCVVVDVSEEEPDVQFSWFVNNVEVHTAQTQPREEQYNSTFRVVSALPIQHQDWMSGKEFKCKVNNKALPSPIEKTISKPKGLVRKPQVYVMGPPTEQLTEQTVSLTCLTSGFLPNDIGVEWTSNGHIEKNYKNTEPVMDSDGSFFMYSKLNVERSRWDSRAPFVCSVVHEGLHNHHVEKSISRPPGK
light: DVVMTQTPVSLSVSLGGQVSISCRSSQSFVSSDGNTYLNWYLQKPGQSPQLLIYKVSNRLSGVPDRFSGSGSGTDFTLKISRVEHDDLGVYYCGQASKIPLTFGSGTKLEIKRADAAPTVSIFPPSMEQLTSGGATVVCFVNNFYPRDISVKWKIDGSEQRDGVLDSVTDQDSKDSTYSMSSTLSLTKVEYERHNLYTCEVVHKTSSSPVVKSFNRNEC
Turning to B1, in the data set on human CD45+ OCIM1 cells, the “lytic activity on OCIM1 cells” value is “showed lytic activity”. For the same molecule, the “engraftment of human CD45+ cells in the bone marrow of NSG mice” value in the data set on human CD34+ cells was “prevented engraftment”. The “inhibition of colony formation” value in the data set on CD34+ PBSC (CD45+) is on record as “do not inhibit colony formation”. Also, the “bioluminescent signal of naked antibody group relative to the corresponding ADC group” value in data set [1] is given as 100 fold. In addition, the “Mean % hCD45 levels in blood, 1 week post-treatment” value with human CD45+ cells [2] (0.3 mg/kg i.v.) turned out to be 3.53%; with human CD45+ cells [2] (1 mg/kg i.v.), 0.82%. Besides, the “Mean % hCD45 levels in blood, 2 weeks Post-treatment” value with human CD45+ cells [2] (0.3 mg/kg i.v.) stood at 4.72%; with human CD45+ cells [2] (1 mg/kg i.v.), 3.92%. The “course of the levels of human CD45+ cells in blood” value in the data set with human CD45+ cells [2] (1 mg/kg, two week period) is “transient reduction”. Also, the “Mean % hCD45 levels in blood, Pre-treatment” value is recorded as 5.55% in the data set with human CD45+ cells [2] (group later dosed 0.3 mg/kg) and 5.47% with human CD45+ cells [2] (group later dosed 1 mg/kg). For the same molecule, the internalisation result with target cells is on record as “substantially internalised via a lysosomal pathway”. For the same molecule, in data set [3], the “Comment (survival / culling)” value is listed as “All alive at day 14”.

B2: YTH24.5-B2: rat IgG2b anti-CD45 antibody YTH24.5 conjugated to PBD drug-linker B2 (drawing 44) (conjugate)
heavy: B1 heavy
light: B1 light
In the data set on 293T (CD45-), B2 displayed an EC50 of over 6 nM. Besides, in the data set on Nalm6 (CD45-), the EC50 stood at 0.0301 nM. Moreover, the “tumor (bioluminescence) signal” value in the data set with fLuc+ OCIM1 cells [4] is on record as “Low/absent tumor signal”. Moreover, in the data set on fLuc+ OCIM1 cells [5], the “period of tumor regression / low tumor signal” value is listed as “shortest period of tumor regression” and the “time within which tumor signal increased again” value is at most 10 days. In addition, in the data set with fLuc+ OCIM1 cells [5] (cohorts of 5 mice, all tumor-bearing), the “mice alive at 60 days” value is 1/5. The “percentage GFP+ human CD34+ cells in the bone marrow (mean)” value with human CD45+ cells [6] turned out to be 72.14%. The “mean % hCD45+ engraftment in the bone marrow” value with human CD45+ cells [6] (8 weeks after allogeneic GFP+ cells, PBS 14.12%) is given as 1.089%.
